Settings: Bos taurus, pH 7, Absorbance, phosphate 0.1 M, reversible: yes, whole UniProt chain shown

B1: Cytochrome b5 wild type, P00171 (protein)
chain: MAEESSKAVKYYTLEEIQKHNNSKSTWLILHYKVYDLTKFLEEHPGGEEVLREQAGGDATENFEDVGHSTDARELSKTFIIGELHPDDRSKITKPSESIITTIDSNPSWWTNWLIPAISALFVALIYHLYTSEN
With B1 the “denaturant midpoint (higher = more stable)” value (30 °C, Urea) was 7.1 M, the Tm (Thermal) was 66.2 °C and the “unfolding enthalpy (van 't Hoff)” value (Thermal) was 298 kJ/mol.
